# According to publication PMC11284791, “Ribosome External Electric Field Regulates Metabolic Enzyme Activity: The RAMBO Effect” (The Journal of Physical Chemistry. B, 2024):
# B1: C-terminal His-tagged triosephosphate isomerase from G. gallus (enzyme, UniProt P00940 1-248, looked up)
# chain: MAPRKFFVGGNWKMNGDKKSLGELIHTLNGAKLSADTEVVCGAPSIYLDFARQKLDAKIGVAAQNCYKVPKGAFTGEISPAMIKDIGAAWVILGHSERRHVFGESDELIGQKVAHALAEGLGVIACIGEKLDEREAGITEKVVFEQTKAIADNVKDWSKVVLAYEPVWAIGTGKTATPQQAQEVHEKLRGWLKSHVSDAVAQSTRIIYGGSVTGGNCKELASQHDVDGFLVGGASLKPEFVDIINAKH
# notes: Triosephosphate isomerase, G. gallus, 248 residues, as m1, with a C-terminal His tag; also called His-TPI; His-tagged TPI; source: E. coli BL21 (DE3), pET-21a(+)-His-TPI, purified (Ni-NTA); not shown: His tag, C-terminal, kept
# Target: the molecule itself
# Test: cross-linking; His-TPI alone with 2 mM BS(PEG)5; 10 mM sodium phosphate pH 7.5, 100 mM NaCl, 10 mM MgCl2, RT, 30 min; SDS-PAGE
protein,measurement,value
B1,stoichiometry N,2
